Experimental data published in patent US20030124571A1, “Novel human septin and uses therefor” (The Government of the United States of America, priority 2000, published 2003).

Tests used:
caspase 3 = test: Caspase 3 fluorescent activity assay with aldehyde inhibitor, all cells examined; type: cell-based
Description: (§1) Cells were seeded to 50% confluence in six-well plates in media containing 10% fetal calf serum overnight. Following 24 hours after transfection, cells media was changed to contain 1% fetal calf serum with or without 10 ng/ml TGF-β for additional 24 hours. Cells were treated with caspase 3 aldehyde inhibitor (Ac-DEVD-CHO) supplied with caspase 3 fluorescent activity kit according to the manufacturers' protocols (Pharmingen, San-Diego, Calif.). Results were read using FL-600 microplate fluorescence reader (Bio-Tek).

COS cells [1] = test: TUNEL assay of transfected COS cells; type: cell-based, monkey; conditions: transfected COS cells, 10 ng/ml TGF-β for 24 hours
Description: COS cells were cultured as previously described (Section E, above). […] When these cells are transfected with ARTS and treatment with TGF-β they are induced to cell death.
COS cells were then transfected with control vector or wildtype ARTS, essentially as described above, and treated with 10 ng/ml TGF-β for 24 hours.
The apoptotic response of COS cells to TGF-β was assessed by a TUNEL assay ([…], now Roche, Indianapolis, Ind.) following the manufacturer's instructions.
COS cells were cultured and transfected, as described above, with equal concentrations of either pcDNA3 control vector, ARTS or M-ARTS-pcDNA3 using the Lipofectamine transfection reagent (Gibco BRL Life Technologies, Gaithersburg, Md.). The cells were treated with 1 o ng/ml TGF-β for 24 hours.
Apoptosis was examined in a TUNEL assay (Boehringer-Mannheim), according to the manufacturer's instructions.

caspase 3 in COS cells = test: Caspase 3 fluorescent activity assay, COS cells; type: cell-based, monkey; conditions: overexpression of construct, following treatment with TGF-β
Description: as §1

caspase 3 in A549 cells = test: Caspase 3 fluorescent activity assay, A549 cells; type: cell-based, human; conditions: overexpression of ARTS, following TGF-β treatment
Description: as §1

NRP-154 cells [2] = test: Annexin-V apoptosis of GFP-sorted transfected NRP-154 cells; type: cell-based, rat; conditions: NRP-154 cells overexpressing ARTS
Description: (§2) Cells were seeded to 50% confluence in six-well plates in DMEM-F12 containing 10% fetal calf serum overnight.
(§3) ARTS whole cDNA in PCMV-sport vector was isolated from a human fetal cDNA library in the pcmv-sport vector (Gibco BRL Life Technologies). This vector is different from AU5 tagged vector.
(§4) The NRP-154 and M-NRP1 cells were cotransfected with a total of 2 μDNA, 1 μg ARTS-pcmv-sport and 1 μg a GFP vector (Clontech, Palo-Alto, Calif.), a marker for transfected cells, using Lipofectamine (Gibco BRL Life Technologies, Gaithersburg, Md.) or FuGENE 6 (Boehringer-Mannheim) according to the manufacturer's protocol.
(§5) After 24 hours, cells media was changed to contain 1% fetal calf serum with or without 10 ng/ml TGF-β for an additional 24 hours.
(§6) GFP-positive cells were sorted using FACS.
(§7) The sorted population was stained with streptavidin-sulforhodamin.
(§8) The number of apoptotic cells was measured using the TACS Annexin-V-biotin (Trevigen, Gaithersburg, Md.).

[3] = test system: 3TP-Lux promoter construct in NRP-154 cells; test: p3TP-Lux reporter luciferase assay with ARTS cotransfection, NRP-154 cells; type: cell-based, rat; conditions: 10 ng/ml TGF-β 24 hours
Description: (§9) NRP-154 and FaO cells were seeded to 50% confluence in six-well plates in DMEM-F12 or DMEM, respectively, containing 10% fetal calf serum overnight.
(§10) Antisense- and sense-ARTS were generated by PCR using ARTS cDNA containing the 5′UTR of ARTS as a template. The PCR fragments were subcloned into the Bam H1-Eco R1 sites of pcDNA3 vector containing the Pcmv promotor (invitrogen, Carlsbad, Calif.).
(§11) NRP-154 cells and FaO cells were transfected with lug/sample p3TP-Lux reporter (a gift from Dr. Joan Massague), which contains 3 repeats of an AP-1 site from the collagenase promoter linked to a short region of the PAI-1 promoter along with equal concentrations of either pcDNA3 control vector (PGL2 vector commercially available from Promega, Madison, Wis.) or the ARTS-pcDNA3 construct, described above.
(§12) The cells were then treated with 10 ng/ml TGF-β for 24 hours.
(§13) After 24 hours, a cell lysate was prepared essentially as described in Part C, above.
(§14) Luciferase activity was determined in the cell lysate using an assay kit (BD Pharmingen, San Diego, Calif.), and a MLX Microtiter plate luminometer (Dynex Technologies, Chantilly, Va.). […]
(§15) Experiments were repeated three times with similar results. The results are expressed as the mean (±SEM) of duplicate luciferase assay, corrected for transfection efficiency.

[4] = test system: caspase 3 in NRP-154 cells; test: Caspase 3 fluorescent activity assay, NRP-154 cells; type: cell-based, rat; conditions: 10 ng/ml TGF-β 24 hours
Description: as §1

[5] = test system: 3TP-Lux promoter construct in FaO rat hepatoma cells; test: p3TP-Lux reporter luciferase assay with ARTS cotransfection, FaO cells; type: cell-based; conditions: 10 ng/ml TGF-β 24 hours
Description: as §9, §10, §11, §12, §13, §14, §15

M-NRP1 cells = test: Annexin-V apoptosis of GFP-sorted transfected M-NRP1 cells; type: cell-based, rat; conditions: M-NRP1 cells transfected with wildtype ARTS, 10 ng/ml TGF-β 24 hours
Description: as §2, §3, §4, §5, §6, §7, §8

COS cells [6] = test: Apoptosis (nuclear fragmentation, immunofluorescence) of COS cells transfected with ARTS constructs; type: cell-based, monkey
Description: A C-terminal deletion construct lacking the last 24 amino acids of the ARTS protein was constructed and its apoptotic activity in COS cells was examined. […] Thus, the truncated construct is both more rapid in translocating to the nucleus and in inducing apoptosis in response to TGF-β.
COS cells were cultured as desribed previously (Section E, above) and cotransfected with either empty empty AU5 vector (based on pcDNA3 vectors provided by Dr. Silvio Gukind) or ARTS-AU5 with X-vector. ARTS-AU5 was prepared as desribed above. X-vector is a general term to describe any other vector which was cotransfected together with ARTS to asses its effect on ARTS activity.
24 hours after transfection, cell media was changed to contain 1% fetal calf serum with or without 10 ng/ml TGF-β and the cells were incubated for another 24 hours. The cells were then washed twice with PBS and fixed with 4% paraformaldehyde in PBS. Cells were blocked with 5% BSA in PBS for 30 minutes, then incubated with anti-AU5 fluroescein antibodies (Babco, Richmond, Calif.). The cells were also counterstained with DAPI for counting of fragmented nuclei.

COS cells [7] = test: Immunofluorescence localization / nuclear translocation of ARTS constructs in COS cells; type: cell-based, monkey; conditions: in response to treatment with TGF-β
Description: (§16) NRP-154 and COS cells were cultured and transfected as described above, and transfected with an ARTS-AU5 tagged construct, essentially as described in Part D, above. The cells were then treated with 10 ng/ml TGF-β.
(§17) An immunofluorescence assay was performed essentially as described in Part G2, above using anti-AU5 antibodies (commercially available Babco, Richmond, Calif.). Anti-AU5 FITC-conjugated secondary antibodies (Pierce) were used to detect transfected ARTS.

NRP-154 cells [8] = test: Immunofluorescence localization / nuclear translocation of ARTS constructs in NRP-154 cells; type: cell-based, rat; conditions: following TGF-β treatment
Description: as §16, §17

Question: Which “TGF-β induced caspase activity” value (caspase 3) does the source give for Ac-DEVD-CHO here?
Answer: inbitited the TGF-β induced caspase activity

B1: ARTS: Apoptosis Related protein in the TGF-β Signaling pathway; 274 amino acid human septin, SEQ. ID. NO: 2, expressed by transfection (protein, listed as Homo sapiens)
chain: MIKRFLEDTTDDGELSKFVKDFSGNASCHPPEAKTWASRPQVPEPRPQAPDLYDDDLEFRPPSRPQSSDNQQYFCAPAPLSPSARPRSPWGKLDPYDSSEDDKEYVGFATLPNQVHRKSVKKGFDFTLMVAGESGLGKSTLVNSLFLTDLYRDRKLLGAEERIMQTVEITKHAVDIEEKGVRLRLTIVDTPGFGDAVNNTECWKPVAEYIDQQFEQYFRDESGLNRKNIQDNRVHCCLYFISPFGHGYGPSLRLLAPPGAVKGTGQEHQGQGCH
notes: Apoptosis Related protein in the TGF-β Signaling pathway; ID; NO: 2, expressed by transfection
Question: B1 was tested. Which “TUNEL staining / competence to undergo apoptosis” value (COS cells [1]) did it give?
Answer: strong TUNEL staining

Question: What about the “activation of caspase 3” value (caspase 3 in COS cells) of the same molecule?
Answer: marked increase in the activation of caspase 3

Question: And the “caspase 3 activity” value (caspase 3 in A549 cells)?
Answer: marked increase in caspase 3 activity

Question: And the “effect on TGF-β induced apoptosis” value (NRP-154 cells [2])?
Answer: lack of effect

Question: What about the “basal and TGF-β-induced luciferase activity (3TP-Lux)” value [3] of the same molecule?
Answer: increased

Question: And the “caspase 3 activity” value [4]?
Answer: no further effect

Question: What about the “basal and TGF-β-induced luciferase activity (3TP-Lux)” value [5] of the same molecule?
Answer: increased

Question: And the “sensitivity to TGF-β induced apoptosis” value (M-NRP1 cells)?
Answer: restored, in part, the sensitivity

Question: What about the “percent transfected apoptotic cells” value (COS cells [6]; COS cells, within 1 hour of TGF-β treatment) of the same molecule?
Answer: 18%

Question: And the “induction of apoptosis by overexpression alone” value (COS cells [6]; COS cells, without TGF-β)?
Answer: does not induce apoptosis

Question: What about the “induction of apoptosis in transfected cells” value (COS cells [6]; cells treated with TGF-β) of the same molecule?
Answer: increased basal level and TGF-β-induced level of apoptosis

B2: ARTS-AU5: AU5 tagged construct containing the entire ARTS coding sequence in pCEF-AU5 vector (protein)
chain: B1 chain
modifications: left off: small tags and cut ends
Question: With B2 as the molecule, how does the “translocation to / localization in the nucleus” value (COS cells [7]) read?
Answer: translocates to from the mitochondria to the nucleus

Question: What about the “translocation to the nucleus” value (NRP-154 cells [8]) of the same molecule?
Answer: translocates to from the mitochondria to the nucleus
